Source: article PMC12000561

Test system: MUTYH WT (MBP fusion) (Homo sapiens)
Test: EMSA
Settings: EMSA: DNA mix 40 mM Tris pH 7.6, 2 mM EDTA, 200 mM NaCl (printed '200 M'), 20% glycerol, 0.2 mg/ml BSA, 2 mM DTT, 20 pM duplex, mixed 1:1 with enzyme in 20 mM …

Duplex 2 THF:OG (product analog), 30 bp
Kd (upper limit estimate, THF (abasic analog) opposite 8-oxoguanine): < 10 pM

Duplex 2 fA:OG (substrate analog), 30 bp
Kd (table unit header missing, 2'-fluoro-2'-deoxyadenosine opposite 8-oxoguanine): 32 pM
